T1: Tof1 (S. cerevisiae (budding yeast), UniProt P53840 1-1238)
T1 construct: Tof1, budding yeast; the Tof1 chain of m2; Stood in the cross-linking sample as a chain of the Tof1-Csm3 complex; source: purified as part of Tof1-Csm3, as previously described (Yeeles et al. 2017)
T1 sequence (looked up): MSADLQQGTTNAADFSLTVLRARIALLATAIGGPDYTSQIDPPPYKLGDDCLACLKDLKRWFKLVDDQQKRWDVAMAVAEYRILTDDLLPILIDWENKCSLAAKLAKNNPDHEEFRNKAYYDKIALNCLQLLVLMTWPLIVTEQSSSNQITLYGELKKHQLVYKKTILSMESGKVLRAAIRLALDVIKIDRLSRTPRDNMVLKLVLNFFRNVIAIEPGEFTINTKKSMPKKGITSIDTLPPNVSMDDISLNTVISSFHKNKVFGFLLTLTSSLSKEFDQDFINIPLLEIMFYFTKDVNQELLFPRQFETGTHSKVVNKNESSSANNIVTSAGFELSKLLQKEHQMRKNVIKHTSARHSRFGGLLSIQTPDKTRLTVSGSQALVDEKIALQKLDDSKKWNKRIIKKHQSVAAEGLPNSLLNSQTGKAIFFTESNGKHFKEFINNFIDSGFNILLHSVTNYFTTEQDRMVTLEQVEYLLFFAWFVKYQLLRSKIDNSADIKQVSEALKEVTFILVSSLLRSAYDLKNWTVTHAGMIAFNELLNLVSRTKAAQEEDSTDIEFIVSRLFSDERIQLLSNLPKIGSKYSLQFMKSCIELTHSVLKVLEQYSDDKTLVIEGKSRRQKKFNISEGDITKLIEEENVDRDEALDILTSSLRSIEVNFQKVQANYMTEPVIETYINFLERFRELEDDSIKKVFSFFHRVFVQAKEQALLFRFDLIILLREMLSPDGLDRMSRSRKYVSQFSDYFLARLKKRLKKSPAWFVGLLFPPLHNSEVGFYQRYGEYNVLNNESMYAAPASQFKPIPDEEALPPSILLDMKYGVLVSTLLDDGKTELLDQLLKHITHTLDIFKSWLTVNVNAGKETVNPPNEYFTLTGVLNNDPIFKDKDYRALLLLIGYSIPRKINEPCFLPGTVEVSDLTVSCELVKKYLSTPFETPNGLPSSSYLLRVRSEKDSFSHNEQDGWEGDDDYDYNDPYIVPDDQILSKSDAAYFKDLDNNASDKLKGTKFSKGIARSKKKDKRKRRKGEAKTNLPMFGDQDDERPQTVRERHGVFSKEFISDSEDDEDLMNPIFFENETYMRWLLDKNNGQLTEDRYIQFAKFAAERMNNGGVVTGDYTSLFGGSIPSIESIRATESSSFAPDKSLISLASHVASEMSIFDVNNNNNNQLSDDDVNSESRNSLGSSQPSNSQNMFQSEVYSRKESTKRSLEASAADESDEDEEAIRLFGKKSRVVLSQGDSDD


What was measured:
Settings in all cases: both partners purified
Tof1-Csm3 complex = biological target: T2, Tof1-Csm3 complex (S. cerevisiae (budding yeast), UniProt P53840 1-1238; Q04659 1-317); assay: pull-down; Flag-tagged Chl1 (200-600 nM) held on anti-Flag M2 magnetic beads; Tof1-Csm3 as prey; interaction buffer
T2 construct: Tof1, budding yeast; Csm3, budding yeast; Held on calmodulin dynabeads when used as bait; source: purified as previously described (Yeeles et al. 2017)

[1] = biological target: T3, cohesin tetramer complex (Smc1-Smc3-Scc1-Scc3) (S. cerevisiae (budding yeast), UniProt P32908 1-1225; P47037 1-1230; Q12158 1-566; P40541 1-1150); assay: pull-down; cohesin tetramer (200-600 nM) held on Protein A dynabeads by anti-Pk antibody (Pk tag on Smc1); 200 nM prey, 30 °C, 5 min; 25 mM HEPES-KOH pH 7.6, 100 mM potassium glutamate, 10 mM magnesium acetate, 0.12% NP-40; SDS elution, Coomassie staining
T3 construct: Smc1, cohesin subunit, budding yeast; Smc3, cohesin subunit, budding yeast; Scc1, cohesin subunit, budding yeast; Scc3, cohesin subunit, budding yeast; also called cohesin complex; source: purified as previously described (Minamino et al. 2018): IgG agarose, 3C protease cleavage; copies: + + +

Tof1 = biological target: T1, Tof1; assay: cross-linking; CLMS with sulfo-SDA; cohesin, Tof1-Csm3 and Chl1 with or without Mrc1 at 300-350 nM, 30 °C 5 min, cross-linker 2 h at 4 °C, UV 365 nm; LC-MS/MS, 1% FDR at residue-pair level; two samples merged

T3 sequence (Q12158 whole entry, chain 3 of 2): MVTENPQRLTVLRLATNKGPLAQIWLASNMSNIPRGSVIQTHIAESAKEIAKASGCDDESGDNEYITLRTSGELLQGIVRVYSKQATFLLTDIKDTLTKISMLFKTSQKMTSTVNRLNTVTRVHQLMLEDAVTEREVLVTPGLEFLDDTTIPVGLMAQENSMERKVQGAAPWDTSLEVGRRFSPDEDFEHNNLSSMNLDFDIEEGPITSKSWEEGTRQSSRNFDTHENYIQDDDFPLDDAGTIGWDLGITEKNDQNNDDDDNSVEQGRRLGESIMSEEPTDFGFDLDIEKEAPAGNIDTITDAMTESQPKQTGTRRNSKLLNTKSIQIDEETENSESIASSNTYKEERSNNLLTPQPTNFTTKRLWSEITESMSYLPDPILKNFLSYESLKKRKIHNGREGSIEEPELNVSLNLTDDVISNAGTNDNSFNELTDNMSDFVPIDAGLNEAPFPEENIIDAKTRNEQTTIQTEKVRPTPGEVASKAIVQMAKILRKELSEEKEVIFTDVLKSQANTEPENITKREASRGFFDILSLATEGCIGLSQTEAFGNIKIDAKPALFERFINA
T3 sequence (P40541 whole entry, chain 4 of 2): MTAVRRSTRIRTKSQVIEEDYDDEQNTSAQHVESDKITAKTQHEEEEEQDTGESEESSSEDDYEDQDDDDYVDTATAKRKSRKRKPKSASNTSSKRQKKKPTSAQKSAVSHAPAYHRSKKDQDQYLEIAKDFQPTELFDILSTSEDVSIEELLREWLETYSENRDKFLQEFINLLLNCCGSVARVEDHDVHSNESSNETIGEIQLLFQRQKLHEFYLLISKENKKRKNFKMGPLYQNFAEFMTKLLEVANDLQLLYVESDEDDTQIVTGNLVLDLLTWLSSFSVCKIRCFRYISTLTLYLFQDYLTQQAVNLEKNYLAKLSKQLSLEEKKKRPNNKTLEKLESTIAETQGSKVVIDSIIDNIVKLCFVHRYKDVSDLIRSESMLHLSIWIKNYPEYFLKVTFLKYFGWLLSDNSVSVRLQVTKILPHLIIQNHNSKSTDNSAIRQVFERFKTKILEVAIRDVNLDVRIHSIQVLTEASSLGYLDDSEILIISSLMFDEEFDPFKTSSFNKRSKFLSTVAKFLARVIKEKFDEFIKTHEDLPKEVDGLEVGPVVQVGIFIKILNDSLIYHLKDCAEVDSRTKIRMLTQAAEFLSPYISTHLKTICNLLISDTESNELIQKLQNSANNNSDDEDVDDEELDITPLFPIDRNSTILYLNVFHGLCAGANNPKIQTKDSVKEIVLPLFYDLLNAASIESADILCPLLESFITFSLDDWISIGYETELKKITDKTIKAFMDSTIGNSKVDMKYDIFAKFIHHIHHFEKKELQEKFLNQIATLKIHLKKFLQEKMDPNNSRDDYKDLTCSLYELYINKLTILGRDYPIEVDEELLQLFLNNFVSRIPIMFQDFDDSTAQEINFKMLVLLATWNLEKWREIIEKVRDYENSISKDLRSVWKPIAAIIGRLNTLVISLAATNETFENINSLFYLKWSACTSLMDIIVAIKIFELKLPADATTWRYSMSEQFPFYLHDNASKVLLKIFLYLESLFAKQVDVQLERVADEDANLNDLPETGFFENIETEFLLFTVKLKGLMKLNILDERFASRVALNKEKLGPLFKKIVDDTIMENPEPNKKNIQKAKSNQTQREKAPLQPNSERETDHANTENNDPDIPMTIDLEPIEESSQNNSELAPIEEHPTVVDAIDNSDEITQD

Row | Binder | binding result (Tof1-Csm3 complex) | binding result [1] | binding result (Tof1)
1 | Chl1 (natural protein, S. cerevisiae (budding yeast), UniProt P22516 1-861, looked up, Chl1, budding yeast; codon-optimized ectopic copy; also called Flag-tagged Chl1; Chl1 helicase) MDKKEYSETFYHPYKPYDIQVQLMETVYRVLSEGKKIAILESPTGTGKTLSLICATMTWLRMNKADIFTRMETNIKTNEDDSENLSDDEPDWVIDTYRKSVLQEKVDLLNDYEKHLNEINTTSCKQLKTMCDLDKEHGRYKSVDPLRKKRKGARHLDVSLEEQDFIPRPYESDSENNDTSKSTRGGRISDKDYKLSELNSQIITLLDKIDGKVSRDPNNGDRFDVTNQNPVKIYYASRTYSQLGQFTSQLRLPSFPSSFRDKVPDEKVKYLPLASKKQLCINPKVMKWKTLEAINDACADLRHSKEGCIFYQNTNEWRHCPDTLALRDMIFSEIQDIEDLVPLGKSLGICPYYASREALPIAEVVTLPYQYLLSESTRSSLQINLENSIVIIDEAHNLIETINSIYSSQISLEDLKNCHKGIVTYFNKFKSRLNPGNRVNLLKLNSLLMTLIQFIVKNFKKIGQEIDPNDMFTGSNIDTLNIHKLLRYIKVSKIAYKIDTYNQALKEEESSKNENPIKETHKKSVSSQPLLFKVSQFLYCLTNLTSEGQFFFEKNYSIKYMLLEPSKPFESILNQAKCVVLAGGTMEPMSEFLSNLLPEVPSEDITTLSCNHVIPKENLQTYITNQPELEFTFEKRMSPSLVNNHLFQFFVDLSKAVPKKGGIVAFFPSYQYLAHVIQCWKQNDRFATLNNVRKIFYEAKDGDDILSGYSDSVAEGRGSLLLAIVGGKLSEGINFQDDLCRAVVMVGLPFPNIFSGELIVKRKHLAAKIMKSGGTEEEASRATKEFMENICMKAVNQSVGRAIRHANDYANIYLLDVRYNRPNFRKKLSRWVQDSINSEHTTHQVISSTRKFFSMRSLNSR | binds | binds | –
2 | Csm3 (natural protein, S. cerevisiae (budding yeast), UniProt Q04659 1-317, looked up, Csm3, budding yeast; the Csm3 chain of m2; Stood in the cross-linking sample as a chain of the Tof1-Csm3 complex; source: purified as part of Tof1-Csm3, as previously described (Yeeles et al. 2017)) MDQDFDSLLLGFNDSDSVQKDPTVPNGLDGSVVDPTIADPTAITARKRRPQVKLTAEKLLSDKGLPYVLKNAHKRIRISSKKNSYDNLSNIIQFYQLWAHELFPKAKFKDFMKICQTVGKTDPVLREYRVSLFRDEMGMSFDVGTRETGQDLERQSPMVEEHVTSAEERPIVADSFAQDKRNVNNVDYDNDEDDDIYHLSYRNRRGRVLDERGNNETVLNNVVPPKEDLDALLKTFRVQGPVGLEENEKKLLLGWLDAHRKMEKGSMTEEDVQLIQSLEEWEMNDIEGQHTHYDLLPGGDEFGVDQDELDAMKEMGF | – | – | binds
3 | Smc1 (natural protein, S. cerevisiae (budding yeast), UniProt P32908 1-1225, looked up, Smc1, budding yeast; the Smc1 chain of m1; Stood in the cross-linking sample as a chain of cohesin; source: purified as part of cohesin, as previously described (Minamino et al. 2018)) MGRLVGLELSNFKSYRGVTKVGFGESNFTSIIGPNGSGKSNMMDAISFVLGVRSNHLRSNILKDLIYRGVLNDENSDDYDNEGAASSNPQSAYVKAFYQKGNKLVELMRIISRNGDTSYKIDGKTVSYKDYSIFLENENILIKAKNFLVFQGDVEQIAAQSPVELSRMFEEVSGSIQYKKEYEELKEKIEKLSKSATESIKNRRRIHGELKTYKEGINKNEEYRKQLDKKNELQKFQALWQLYHLEQQKEELTDKLSALNSEISSLKGKINNEMKSLQRSKSSFVKESAVISKQKSKLDYIFKDKEKLVSDLRLIKVPQQAAGKRISHIEKRIESLQKDLQRQKTYVERFETQLKVVTRSKEAFEEEIKQSARNYDKFKLNENDLKTYNCLHEKYLTEGGSILEEKIAVLNNDKREIQEELERFNKRADISKRRITEELSITGEKLDTQLNDLRVSLNEKNALHTERLHELKKLQSDIESANNQEYDLNFKLRETLVKIDDLSANQRETMKERKLRENIAMLKRFFPGVKGLVHDLCHPKKEKYGLAVSTILGKNFDSVIVENLTVAQECIAFLKKQRAGTASFIPLDTIETELPTLSLPDSQDYILSINAIDYEPEYEKAMQYVCGDSIICNTLNIAKDLKWKKGIRGKLVTIEGALIHKAGLMTGGISGDANNRWDKEEYQSLMSLKDKLLIQIDELSNGQRSNSIRAREVENSVSLLNSDIANLRTQVTQQKRSLDENRLEIKYHNDLIEKEIQPKITELKKKLDDLENTKDNLVKEKEALQNNIFKEFTSKIGFTIKEYENHSGELMRQQSKELQQLQKQILTVENKLQFETDRLSTTQRRYEKAQKDLENAQVEMKSLEEQEYAIEMKIGSIESKLEEHKNHLDELQKKFVTKQSELNSSEDILEDMNSNLQVLKRERDGIKEDIEKFDLERVTALKNCKISNINIPISSETTIDDLPISSTDNEAITISNSIDINYKGLPKKYKENNTDSARKELEQKIHEVEEILNELQPNARALERYDEAEGRFEVINNETEQLKAEEKKILNQFLKIKKKRKELFEKTFDYVSDHLDAIYRELTKNPNSNVELAGGNASLTIEDEDEPFNAGIKYHATPPLKRFKDMEYLSGGEKTVAALALLFAINSYQPSPFFVLDEVDAALDITNVQRIAAYIRRHRNPDLQFIVISLKNTMFEKSDALVGVYRQQQENSSKIITLDLSNYAE | – | – | binds
4 | Smc3 (natural protein, S. cerevisiae (budding yeast), UniProt P47037 1-1230, looked up, Smc3, budding yeast; the Smc3 chain of m1; Stood in the cross-linking sample as a chain of cohesin; source: purified as part of cohesin, as previously described (Minamino et al. 2018)) MYIKRVIIKGFKTYRNETIIDNFSPHQNVIIGSNGSGKSNFFAAIRFVLSDDYSNLKREERQGLIHQGSGGSVMSASVEIVFHDPDHSMILPSGVLSRGDDEVTIRRTVGLKKDDYQLNDRNVTKGDIVRMLETAGFSMNNPYNIVPQGKIVALTNAKDKERLQLLEDVVGAKSFEVKLKASLKKMEETEQKKIQINKEMGELNSKLSEMEQERKELEKYNELERNRKIYQFTLYDRELNEVINQMERLDGDYNNTVYSSEQYIQELDKREDMIDQVSKKLSSIEASLKIKNATDLQQAKLRESEISQKLTNVNVKIKDVQQQIESNEEQRNLDSATLKEIKSIIEQRKQKLSKILPRYQELTKEEAMYKLQLASLQQKQRDLILKKGEYARFKSKDERDTWIHSEIEELKSSIQNLNELESQLQMDRTSLRKQYSAIDEEIEELIDSINGPDTKGQLEDFDSELIHLKQKLSESLDTRKELWRKEQKLQTVLETLLSDVNQNQRNVNETMSRSLANGIINVKEITEKLKISPESVFGTLGELIKVNDKYKTCAEVIGGNSLFHIVVDTEETATLIMNELYRMKGGRVTFIPLNRLSLDSDVKFPSNTTTQIQFTPLIKKIKYEPRFEKAVKHVFGKTIVVKDLGQGLKLAKKHKLNAITLDGDRADKRGVLTGGYLDQHKRTRLESLKNLNESRSQHKKILEELDFVRNELNDIDTKIDQVNGNIRKVSNDRESVLTNIEVYRTSLNTKKNEKLILEESLNAIILKLEKLNTNRTFAQEKLNTFENDLLQEFDSELSKEEKERLESLTKEISAAHNKLNITSDALEGITTTIDSLNAELESKLIPQENDLESKMSEVGDAFIFGLQDELKELQLEKESVEKQHENAVLELGTVQREIESLIAEETNNKKLLEKANNQQRLLLKKLDNFQKSVEKTMIKKTTLVTRREELQQRIREIGLLPEDALVNDFSDITSDQLLQRLNDMNTEISGLKNVNKRAFENFKKFNERRKDLAERASELDESKDSIQDLIVKLKQQKVNAVDSTFQKVSENFEAVFERLVPRGTAKLIIHRKNDNANDHDESIDVDMDAESNESQNGKDSEIMYTGVSISVSFNSKQNEQLHVEQLSGGQKTVCAIALILAIQMVDPASFYLFDEIDAALDKQYRTAVATLLKELSKNAQFICTTFRTDMLQVADKFFRVKYENKISTVIEVNREEAIGFIRGSNKFAEV | – | – | binds
